The record followed here is doi:10.1101/2023.11.28.564875 (bioRxiv, 2023).

The target in assay [1] is T1, GST-fused Cα-subunit of mouse PKA (GST-PKAC) (mouse, UniProt P05132 1-351). The experiment in a line: pull-down.
Assay [2] concerns the target T1, GST-fused Cα-subunit of mouse PKA …. Kind of assay: pull-down. This is another data set of the same source.

B1: His8-DCRD-Myc (domain or fragment)
chain: RQFHGSASSLVEAVLISEGLGQFAQDPKFIEVTTQELADACDLTIEEMENAADDILSGGARQS
B1 registered a Kd in assay [1] of under 1000 nM. Also, in assay [2], the half-maximal inhibitory concentration (IC50) was 880 nM.
